Experiment [1] has as its target T1, PD-1 (soluble, biotinylated, on sensors or coated on plates) (human, UniProt Q15116 25-167, biotinylated (avi tag, Avidity's biotinylation kit) in the Octet assays). The experiment in a line: ELISA; constant antigen coating. In general terms: ELISA stands for enzyme-linked immunosorbent assay.
Experiment [2] has as its target T1, PD-1 (soluble, biotinylated, on sensors …). The experiment is described as follows: ELISA; variable antigen coating.

Among the data in US20220249640A1 (published 2022) are EC50 values, retold here.

The EC50 is the midpoint of the concentration-response curve. Low values mean higher potency in that assay, high ones lower potency in that assay.

T1 sequence (Q15116 25-167): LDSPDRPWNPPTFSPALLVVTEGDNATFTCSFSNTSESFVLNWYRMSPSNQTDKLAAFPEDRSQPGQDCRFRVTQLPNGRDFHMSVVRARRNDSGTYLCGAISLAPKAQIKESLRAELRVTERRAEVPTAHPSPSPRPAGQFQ

B1: P4-B3 IgG1 wild type monomer (antibody, V domains shown)
VH: QVQLVQSGGGLVQPGRSLRLSCAASGFTFDDYAMHWVRQAPGKGLEWVSGISWNSGSIGYADSVKGRFTVSRDNAKNSLYLQMNSLRAEDTAVYYCASDYGDKYYYYGMDVWGKGTTVTVSS
VL: QPGLTQPPSASGTPGQRVTISCSGSSSNIGSNTVNWYQQFPGKAPKLLIFNDNQRPSGVPDRFSASKSGTSASLAISGLQSEDEADYYCAAWDGGLNGRGVFGGGTKLTVLG
As for B1, the EC50 in experiment [1] was found to be 0.0407 µg/mL; in experiment [2], 0.514 µg/mL.
